Experimental data as given in the DeepSol protein solubility set.

Assay: soluble on expression in E. coli; label from the status in PepcDB or PDB records

| Sequence | soluble on expression in E. coli |
| --- | --- |
| MLNEQIFSNARVVTAEQVFIGTVVVRDGLIAEVQTGRSQLSQAQDLEGDFLLPGLVELHTDNLEKHLSPRPGVDWPSMSAVISHDAQIVAAGITTVFDALSIGDINPKGKRMQQLPAMLQAIADANEAGLTRADHLLHLRCEVSHPDTLNVFRDLVGQPLVQLVSVMEHAPGQRQFALESKYREYYMGKYHMSHEEMDHFIVEQVANSTEYADRYRRAIVELCLARGLSIASHDDATMAHVEESAGFGMNIAEFPTTLEAAQGCRQLGMSVLMGAPNIVRGGSHSGNVAAASLARHGLLDILSSDYYPASLLQAAFMLAEQDNDCELPHAINMVSRTPAIAAGLADRGEIRVGLRADLIQARNHAGLPVIDKVWRQGKRVF | not soluble |
| MIKSSSKIGLAFFVRPQFDVDLAKNFFNKVQDSLKEAGIATQVFELPVSTDAEALSLAESVNSHQDLHGLIVVQGTFCDASLILNLASNINLPIMIWATKEQPTGGRLSLNSFCGLNLGAHTLVNAGIKFKGVYGSPGSPAVIKKVTSFARAAGAVKWLKGKRIGLFGHRPSGYYPSNFNEILLRKQFGITVEYLSLSEVFSLAQKMEIKDIQPFINTLVGVEGLEMVSTSKSVQAYLALKELIAQKALDAVAVECWPEFMAGFGGAVCYALSRLNDEGIVAACEADVNGAVTMLLGSYLSSQANFIADLVGAEEEQNQLIFWHCGNGPLSLAAPGTNPVAGVHPNRKTPLAMYFPLKGGPVTVSRLSSDHNGNLRLFLGSGTGIETDLLYSGNSLPIQISGSVEETLDTILCEGIEHHYIVTYGDLTSEFREIAELLGLRMITF | not soluble |
| MGSDKIHHHHHHMPAIELSNGEARLLARPDLGAGLTAFDVLHDGVWQAIFRRVDPSTAHPFALSNILLVPFSGRVSGGGFTFDGTFHALPRNVETELYPIHGNGFSAAWDVASLSADLLTLTLSAEGPGPFRYDATMSYRLQGAGLLMELSLVNRARIRLPYGAGFHPWFVREPDTTLHAPARGVWLEQSDHLPKAHDAIAAQADLDFNRPKPLPARWINNWFDGWDGKARIHWPSRGLAVDVDASEGLRQYVVFSPAAAADFFCFEPVTHPVDAFNLPGKAEAHGLKILEPDESLAVSARVAADFG | not soluble |
| SNAMNLNQLDIIVSNVPQVCADLEHILDKKADYANDGFAQFTIGSHCLMLSQNHLVPLENFQSGIIIHIEVEDVDQNYKRLNELGIKVLHGPTVTDWGTESLLVQGPAGLVLDFYRMK | soluble |
| AHHHHHHGSITRGRVWKFGDNISTDAITPGRYNLTKDPNELAKIAFIEERPEFSKEVKPGDVVVGGKNFGIGSSRESAALALKAAGVGGVIAKSFGRIFFRNAVNLGLPLLIGNTDPLLDGEIVEVNWRSGEVKKEDGEVLKFKPLDSFLLAIVEEGGIIEYIRRRGDLWIQ | soluble |
| MGSDKIHHHHHHMKLSLVISTSDAAFDALAFKGDLRKGMELAKRVGYQAVEIAVRDPSIVDWNEVKILSEELNLPICAIGTGQAYLADGLSLTHPNDEIRKKAIERVVKHTEVAGMFGALVIIGLVRGRREGRSYEETEELFIESMKRLLELTEHAKFVIEPLNRYETDFINTIDDALRILRKINSNRVGILADTFHMNIEEVNIPESLKRAGEKLYHFHVADSNRWAPGCGHFDFRSVFNTLKEIGYNRYVSVECLPLPGGMEEAAEIAFKTLKELIIKLT | not soluble |
| MSVPAGSVSCLANALLNLRSSTDYNADHGVKNSILNFSNSKDASRFDGSESWSSSVLDKNQFIVAGSDSVKHFVAISTQGRGDHDQWVTSYKLRYTLDNVNWVEYNNGEIINANKDRNSIVTINFNPPIKARSIAIHPQTYNNHISLRWELYALPVKSYSNPSVQVGEVSIGDRSLNSGTGSRTIVRHVKFPVEFLSVPIVSIGCKKVDAHTDNGQMRWEGKSENITTKGFDLTFITWGNNAVYDLTFDYVAVEFNN | soluble |
| MKDPLLNSLIYVSRYYGLANSPEALVNGLPLSDGKLTPFLLPRAAERAGLVAKENRAELEKISSLILPAILVLKGGDSCVLNSINMETREAEVTTLESGMVPISIPLEDLLEQYTGRYFLVKKQFR | soluble |
| MGSDKIHHHHHHMEYGHHARPDSKRPLDEGSPAAAGLTSKKANEALTRNRELTTVLVKNLPKSYNQNKVYKYFKHCGPIIHVDVADSLKKNFRFARIEFARYDGALAAITKTHKVVGQNEIIVSHLTECTLWMTNFPPSYTQRNIRDLLQDINVVALSIRLPSLRFNTSRRFAYIDVTSKEDARYCVEKLNGLKIEGYTLVTKVSNPLEKSKRTDSATLEGREIMIRNLSTELLDENLLRESFEGFGSIEKINIPAGQKEHSFNNCCAFMVFENKDSAERALQMNRSLLGNREISVSLADKKPFLERNEVKRLLASRNSKELETLICLFPLSDKVSPSLICQFLQEEIHINEKDIRKILLVSDFNGAIIIFRDSKFAAKMLMILNGSQFQGKVIRSGTINDMKRYYNNQQNHSMKHVKPSCINMMEKGPNLQVKKKIPDKQEQMSNDDFRKMFLGE | not soluble |
| MSLTIDRIRALVSEDFNAVNNLIIDKIQSQVGLIQDLSQHIVESGGKRLRPLVVLLASNACGYKGKDHISLAAMVEFFHTATLLHDDVIDESTLRRGRQTANSIWGSKASVLVGDYLFTQSVNLMVEVGIKEILNLLANTSHQITCGEVKQLANRHNPALTLDDYFDVIRAKTALLFAAAACIGPILTNAPIELRNSLYNYGLHLGNAFQLIDDALDYCSDAATLGKNIGDDLADGKATLPLIHALQNGNATQQQQIRESLMKGSLSHLPDILIAIEQTEAIPFTKRIAAQEVDSALSALEILPDSVYKEALVDLAKFALERNYEGHHHHHH | soluble |
| MGSDKIHHHHHHMSRLAHNKALPYKIIVDLSFHRTRLPSDVSSLIKFEQRPAIINIHGLLGSHVMFHSLNKLLSRKLDADIFSVDVRNHGISPKAIPYDYTTLTNDLIYFIETHIGLERPIYLLGFSMGGKIALLTTLYKNINIRKCISIDLPPYETPELDPMILQNYDLIMRIIRRDVKILRGSPSWQKKVLELFKSLECNKRKCGGAVALYFANGFLSVKSNNVHQAQLHYEQQQHDPYINYSMPLSSMPNLLDEVKKWPDLSNQRDFFQKGTASRKVLFMKGLQSNFINNDYSLLRYNFPCADVREFNTGHNLLLENPEDSFKCILNFFAEETLDFE | not soluble |
| MKMMDANEIISFIQNSTKSTPVKVYVKGELEGINFGESAKAFINGNTGVVFGEWSEIQTAIEENQSKIEDYVVENDRRNSAIPMLDL | not soluble |
| MILITLLKDGVGEKMRIVFDLGGSVVMPKEGAKAEKIMEYANIFKKIKDEGHEVAIVVGGGKTAREYIEIGRELGASESFCDELGIMATRMNAMILITALGDYSIKKVPTSFEEAELILNLGKIPVMGGTHPGHTTDAVAASLAEFINADLLVIGTNVDGVYDKDPNKYEDAKKFDKMSAKELVDLAISSSLKAGSSSVVDLLAAKIIERAKLKVAVVKGTPEELLNVSKGIINGTIIEG | soluble |
| MTARPDTAIVLAAGLGKRMRPITDTIPKPLVRIAGKTLLDWGLDSLAAAGVAKAVVNVHYLPEQIVAHVAARSAPRIVISDESDRLLDSAGGIVKALPELGEQPFYILNADTFWIDHGPLNLGRLALAWDAAKMDILLMLADLHQATGHCGSTDFLVAPDGALRRSKGDPAGLIYAGAAIIHPRLFKDASAEPHSLNAYFDKAIAAGRLFGMPMHGHWITVGTPDAIPLAEEAVAGALAEMQLEHHHHHH | not soluble |
| GPLGSLPEELVHAGWEKCWSRRENRPYYFNRFTNQSLWEMPVLGQHDVISDP | soluble |
| MSATMQSETVYDAVIVGGGVAGGTAALLLRQRGCSVALLEKRPLDYYKALCTHFIQPSAVPILRRVGLDHVLEPEASTRTKASFVTSEGVIDTPGGYTDDAATAYAYNLERRVLDPALRARARSEGVDLLDEATVTACRLQADGLWRVEADADTDTDGARHPRVLRARVVIAADGRRSQMAQWLNNAAVQHDNQRAAVFAQFEGIAVPGGNRSLFILAEREMGFVYPLTGGRTLLSAYVEKDRAAQWRHSADAGAPLLDFFARLAPGLDLAGARLLTPVLGYADYPSQFRQPVCGAVPFIGDAALSLDPMSGVGCGFAMEAAALLDEHLGPALQAQGNSAIGPALDAYASRFDTHFAAHARGIVADSLIAKQPAAQAALYRAVIADPALQRDYLALTGRLITPQAFQRAYFSAHVRSQRAATTHAHPPERASELSLEHHHHHH | not soluble |
